Laboratory results: article PMC7652922

Assay: L-[14C]arginine to L-[14C]citrulline conversion, transfected HEK293, low glucose
Details: glycan lost; control: WT-eNOS

B1: endothelial nitric oxide synthase (eNOS): T866A (protein)
parent chain: MGNLKSVAQEPGPPCGLGLGLGLGLCGKQGPATPAPEPSRAPASLLPPAPEHSPPSSPLTQPPEGPKFPRVKNWEVGSITYDTLSAQAQQDGPCTPRRCLGSLVFPRKLQGRPSPGPPAPEQLLSQARDFINQYYSSIKRSGSQAHEQRLQEVEAEVAATGTYQLRESELVFGAKQAWRNAPRCVGRIQWGKLQVFDARDCRSAQEMFTYICNHIKYATNRGNLRSAITVFPQRCPGRGDFRIWNSQLVRYAGYRQQDGSVRGDPANVEITELCIQHGWTPGNGRFDVLPLLLQAPDDPPELFLLPPELVLEVPLEHPTLEWFAALGLRWYALPAVSNMLLEIGGLEFPAAPFSGWYMSTEIGTRNLCDPHRYNILEDVAVCMDLDTRTTSSLWKDKAAVEINVAVLHSYQLAKVTIVDHHAATASFMKHLENEQKARGGCPADWAWIVPPISGSLTPVFHQEMVNYFLSPAFRYQPDPWKGSAAKGTGITRKKTFKEVANAVKISASLMGTVMAKRVKATILYGSETGRAQSYAQQLGRLFRKAFDPRVLCMDEYDVVSLEHETLVLVVTSTFGNGDPPENGESFAAALMEMSGPYNSSPRPEQHKSYKIRFNSISCSDPLVSSWRRKRKESSNTDSAGALGTLRFCVFGLGSRAYPHFCAFARAVDTRLEELGGERLLQLGQGDELCGQEEAFRGWAQAAFQAACETFCVGEDAKAAARDIFSPKRSWKRQRYRLSAQAEGLQLLPGLIHVHRRKMFQATIRSVENLQSSKSTRATILVRLDTGGQEGLQYQPGDHIGVCPPNRPGLVEALLSRVEDPPAPTEPVAVEQLEKGSPGGPPPGWVRDPRLPPCTLRQALTFFLDITSPPSPQLLRLLSTLAEEPREQQELEALSQDPRRYEEWKWFRCPTLLEVLEQFPSVALPAPLLLTQLPLLQPRYYSVSSAPSTHPGEIHLTVAVLAYRTQDGLGPLHYGVCSTWLSQLKPGDPVPCFIRGAPSFRLPPDPSLPCILVGPGTGIAPFRGFWQERLHDIESKGLQPTPMTLVFGCRCSQLDHLYRDEVQNAQQRGVFGRVLTAFSREPDNPKTYVQDILRTELAAEVHRVLCLERGHMFVCGDVTMATNVLQTVQRILATEGDMELDEAGDVIGVLRDQQRYHEDIFGLTLRTQEVTSRIRTQSFSLQERQLRGAVPWAFDPPGSDTNSP
For B1, the “enzymatic_activity, fold_change” value was “decreases, compared with T866A-eNOS, the activity of WT-eNOS was increased 8 to 10 folds”.
